From patent publication US7572612B2, “Method of production of para-hydroxycinnamic acid using a thermostable TAL enzyme” (E.I. du Pont de Nemours and Company, priority 2006, dated 2009) come the findings set out here.

Assay [1] is described as follows: Kinetic parameters of the PcTAL enzyme for tyrosine. The note with it: from kcat/KM, 45° C., 100 mM CAPS pH 9.5. Type of assay: biochemical. The procedure:
The kinetic parameters of the PcTAL enzyme for tyrosine and phenylalanine were determined at 45° C., in 100 mM CAPS, pH 9.5 buffer. The increase of TAL and PAL activities with increasing substrate concentrations followed the typical Michaelis-Menton equation. The kcat of the enzyme was 1.3 S^−1 for tyrosine, and 3.3 S^−1 for phenylalanine. The KM was 44 μM for tyrosine and 161 μM for phenylalanine. The kcat/KM value was slightly higher for tyrosine (3.0 M^−1 S^−1) than for phenylalanine (2.1 M^−1 S^−1), indicating the enzyme's slight preference for tyrosine (PAL/TAL ratio of 0.7). […] The substrate specificity of the PcTAL enzyme is therefore similar to other known fungal PAL/TAL enzymes, such as that from R. glutinis, with dual specificity for tyrosine and phenylalanine.

The nature of assay [2]: Bioconversion of tyrosine to pHCA by cell suspensions in 50 ml tubes. It counts as cell-based, E. coli. The note with it: pH 9.9, 0.5 g dcw/L, 20 g/L tyrosine (Example 11). The procedure: A suspension of DPD5154 cells in ˜75 ml of saline solution (8.5 g NaCl/L) with a cell concentration at an OD550 of 221.47 was used. The desired OD550 of 2.998 (0.989 g dcw/L) was achieved through serial dilution of the original sample. The cell suspension was equilibrated to 50° C., titrated to pH 9.9 and stored at 50° C. A tyrosine stock of 40 g/L at pH 9.9 was also prepared and stored at 50° C. Reactions measuring bioconversion of tyrosine to pHCA by the cell suspension were carried out at the following temperatures: 34° C., 39° C., 47° C., and 59° C. Each reaction was initiated by adding 5.0 ml of the cell suspension to 5.0 ml of the 40 g/L tyrosine solution in a 50 ml disposable conical tube. The final concentration of cells in each reaction was 0.5 g dcw/L. The final concentration of tyrosine in each reaction was 20 g/L (110 mM). All reactions were incubated at the temperatures indicated above with shaking at 180 rpm. Samples (750 μl) were taken at 30, 60, 90, 120 minutes, centrifuged (14,000×g for ˜8 minutes), the supernatants filtered through 0.2 um filters (Costar #8161), and the filtrates diluted using 50 mM Tris/HCl, pH 7.5. The filtrates were analyzed by HPLC for the amount of pHCA as described in General Methods. The optimum reaction temperature among those temperatures tested was determined to be 39° C., and the reaction slowed down dramatically at 59° C. […]
To determine the optimum pH (between pH 9.8-11.0) for the bioconversion reaction of tyrosine to pHCA at 42° C. using strain DPD5154, reactions were performed as described in Example 11. Tyrosine solutions (40 g/L concentration) were titrated to pH 9.8, 10.0, 10.2, 10.5, and 11.0 and stored at 42° C. Reactions were initiated by adding 5.0 ml of cell suspension to 5.0 ml of each tyrosine solution in a 50 ml disposable conical tube. The final concentration of cells in each reaction was 0.5 g dcw/L and the final concentration of tyrosine was 20 g/L (110 mM). Reactions were incubated at 42° C. with shaking at 180 rpm.

A short description of assay [3]: TAL activity temperature profile of purified enzyme. Type of assay: biochemical. On the procedure: Six grams of cell pellet, from the 10 liter fermentation of DPD5154 was resuspended in 6.0 mL Buffer A (10 mM Tris-HCl, pH 8.0, 200 μM EDTA) containing one EDTA-free protease inhibitor tablet (Roche Biosciences, Palo Alto, Calif.), 1.0 μg/ml Leupeptin, 1.0 μg/ml Pepstatin, 40 μg/ml Bestatin 5.0 mM CA. Cells were lysed by two passes through a French Pressure Cell at 20,000 PSI, and clarified by centrifugation at 12,000×g for 20 minutes. To the clarified supernatant, 1.0% streptomycin sulfate was added, and the suspension was gently mixed for 15 minutes at 4° C. and then clarified by centrifugation at 12,000×g for 20 minutes. The supernatant was heated at 60° C. for 20 min, and centrifuged again at 12,000×g for 20 minutes. This clarified crude extract sample was loaded onto a Q Sepharose FF 16/10 anion exchange column equilibrated with buffer A in an Akta FPLC system (Amersham, GE Healthcare, Piscataway, N.J.), and eluted with 10 column volumes of gradient from Buffer A, to Buffer A containing 1.0 M NaCl. Five ml fractions were collected from the column and assayed for TAL activity as described above. The fractions containing TAL activity were pooled. To the pooled anion exchange fractions containing TAL activity, saturated (NH4)2SO4 (4.0M) was added to final 30% saturation. After centrifugation at 12,000 g for 20 minutes, additional saturated (NH4)2SO4 (4.0M) was added to the supernatant fraction to a final 50% saturation. The mixture was centrifuged again at 12,000 g for 20 minutes, and the supernatant was removed. […] The purity of the PcTAL protein in the fractions was analyzed by SDS-PAGE. The fractions containing TAL activity with high purity as determined by SDS-PAGE were pooled. […]
The in vitro enzymatic assay using the purified PcTAL was performed as a comparison to the whole cell assay. The temperature profile of the purified PcTAL enzyme (from Example 6) was measured at temperatures varying from 25° C. to 60° C. in 100 mM CAPS buffer, pH 10, containing 1.0 mM tyrosine. […]

B1: PcTAL: thermostable tyrosine ammonia lyase (PAL/TAL) enzyme from Phanerochaete chrysosporium, SEQ ID NO:1 (protein, listed as Phanerochaete chrysosporium)
chain: MPSRIDYYTSSGNGYAQSRKSSAIYPASASTGHAAPSTERKPELLDKFVEAYDELQSYREGKPVIVDGHNLSIPAVAATARFGAAVVLDENPETHERVLQSRRVIVDKVSTQRSVYGVSTGFGGSADTRTSDPLQLGHALLQHQHVGVLPTQTESPLPALPLGDPLATTSMPEAWVRGAILIRMNSLIRGHSGVRWELIEKMGELLRENITPLVPLRGSISASGDLSPLSYIAGTLIGSPAIRVFDGPASYGARRILPSNIALANHGVAPIPLSSKEHLGILNGTAFSASVGALALNEAVHLSLLAQVCTAMGTEAMIGAVGSFDAFIHDTARPHPGQVEVARNVRTLLEDSQMAVKAEDEVHIAEDEGELRQDRYPLRTAAQFLGPQIEDILSAHETVTLECNSTTDNPLIDGETGTVHHGGNFQAMAVTNAMEKTRLAIHHIGKLLFAQATELINPMMNRGLPPNLAATDPSHNYFAKGVDIHLAAYVGELGFLASPVSSHIQSAEMHNQAVNSLALVSARYTISALDVLSLLTAAYLYVLCQALDLRAMHNDLQSSLSAIVRELLPKHFPSAAKRADALLPILERTIFRALNSSSSADCKARMVSVAASTTTPLVDFLSADAALASELANITAFRTELATRAADALTTLRTQYLEGARGAAPASKYLGKTRPVYEFVRVTLNVPMHGRENLHNFEMGPGVEDGIIGNNISTIYEAIRDGKMQNVVMQLVKSIKA
Consider B1, for which the PAL/TAL ratio in assay [1] was determined as 0.7. The “pHCA (mM) formed in 2 h” value in assay [2] (34° C.) came to 5.0 mM; in assay [2] (39° C.), 6.2 mM; in assay [2] (47° C.), 4.7 mM; in assay [2] (59° C.), 0.02 mM. Besides, the “TAL activity at 55° C.” value in assay [3] (55° C.) came to 1479 U/g. In assay [3] (60° C.), the “TAL activity at 60° C.” value came to 1431 U/g. In addition, the “maximum activity of purified enzyme relative to that at 25° C.” value in assay [3] (about 55° C. vs 25° C.) was “about 3 fold”.
